The record followed here is publication PMC12381655.

B1: Biotin-RNA3 (A24 DNA) (XNA)
strand: AAAAAAAAAAAAAAAAAAAAAAAA
modifications: 2'-deoxy A substitutions, about 50% by design (positions in Table S2/Fig. 3A not in material)
B2: Biotin-RNA5 (A24 2'-MOE) (XNA)
strand: AAAAAAAAAAAAAAAAAAAAAAAA
modifications: 2'-O-methoxyethyl A, about 50% by design (positions in Table S2/Fig. 3A not in material)

In this series the target is PABP (hPABPC1) (human, UniProt P11940 1-636). The experiment in a line: SPR.
Chain of PABP (hPABPC1) (P11940 whole entry): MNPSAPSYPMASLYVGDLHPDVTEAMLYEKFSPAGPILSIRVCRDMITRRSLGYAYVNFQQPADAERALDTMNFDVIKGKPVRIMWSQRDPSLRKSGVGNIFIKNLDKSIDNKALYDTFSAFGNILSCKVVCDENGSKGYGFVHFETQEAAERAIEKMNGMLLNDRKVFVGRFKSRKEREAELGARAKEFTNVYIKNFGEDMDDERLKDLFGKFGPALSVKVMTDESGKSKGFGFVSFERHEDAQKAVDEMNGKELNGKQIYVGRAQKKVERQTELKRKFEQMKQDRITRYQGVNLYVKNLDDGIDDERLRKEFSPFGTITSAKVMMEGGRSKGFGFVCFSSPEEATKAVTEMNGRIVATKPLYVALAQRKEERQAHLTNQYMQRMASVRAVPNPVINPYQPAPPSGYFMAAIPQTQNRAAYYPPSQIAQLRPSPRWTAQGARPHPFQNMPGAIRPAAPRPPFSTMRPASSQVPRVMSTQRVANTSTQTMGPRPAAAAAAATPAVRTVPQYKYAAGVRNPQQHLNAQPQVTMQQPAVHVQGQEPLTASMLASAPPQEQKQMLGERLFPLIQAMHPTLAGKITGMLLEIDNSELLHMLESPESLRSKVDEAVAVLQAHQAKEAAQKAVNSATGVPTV
For the molecule AAAAAAAAAAAAAAAAAAAAAAAA (XNA, 2'-O-methyl A, 50% substitution (positions in Table S2/Fig. 3A not in material)) [Biotin-RNA4 (A24 2'-OMe)], the binding result is listed as “no binding”.
Then B1, with “no binding”; and ACUGCGCUGAUUUUUUUUUUUUUUUUUUUUUUUUUUUUUUUUUUUUUUUU (ssRNA) [Biotin-RNA8 (U40)], with “no binding”.
The entry for AAAAAAAAAAAAAAAAAAAAAAAA (XNA, 2'-fluoro A, 50% substitution (positions in Table S2/Fig. 3A not in material)) [Biotin-RNA6 (A24 2'-F)] is “no binding”; for B2 it is “no binding”.
